Assay results taken from patent publication US8765908B2, “Compositions for improving bone mass” (The UAB Research Foundation, priority 2010, dated 2014).
Residue numbers refer to the chain shown, from its start. “Also recorded” adds a separate entry of the source.

Key:
[1] = biological target: T1, RANK fragment 498-556 (Myc-RANK) (Mus musculus, UniProt O35305); assay: Co-immunoprecipitation with Myc-RANK in 293T cells; format: binding; settings: cotransfection with Myc-RANK in 293T cells; IP then Western blot
T1 construct: expressed in transfected cells; host or cells: 293T cells
T1 sequence (O35305 498-556): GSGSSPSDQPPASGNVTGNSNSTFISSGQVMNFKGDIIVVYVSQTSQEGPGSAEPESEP
Protocol: (§1) 293T cells were cultured in DMEM containing 10% heat-inactivated fetal bovine serum (HI-FBS) and penicillin/streptomycin (culturing medium). Cells grown near confluence were lifted and replated at density of 5×10^6 cells/dish in 100-mm tissue culture dishes the day before transfection. Total 8 μg plasmid was transfected into 293T cells using Lipofectamine™ in combination of Plus® Reagent (Invitrogen). Briefly, 8 μg plasmid was mixed with 20 μl Plus®Reagent before addition of 350 μl DMEM. The mixture was incubated at RT for 15 min and then added with 380 μl freshly prepared Lipofectamine™ Reagent (Lipofectamine™ Reagent+350 μl DMEM). The complete transfection solution was further incubated at RT for 15 min before being added to one dish of 293T cells which was washed with DMEM twice immediately before the addition of the solution. The cells were incubated at 37° C. for 3 hrs before addition of 6.5 ml culturing medium and the incubation continued overnight. […]
As such, the potential of RYBP as a signaling molecule interacting with the IVVY (SEQ ID NO:4) motif was examined to regulate osteoclastogenesis. […] It was then determined whether the interaction between the RANK fragment and RYBP seen in yeast also occurs in mammalian cells. the cDNA region encoding the bait was cloned into pCMV-Myc vector (BD Biosciences Clontech) to generate Myc-RANK (FIG. 1C). […]

[2] = biological target: T2, Myc-mRANK (RANK fragment with IVVY to IVAF inactivating mutation) (Mus musculus, UniProt O35305, V537A/Y538F); assay: Co-immunoprecipitation with Myc-mRANK in 293T cells; format: binding; settings: cotransfection with Myc-mRANK; IP anti-Myc, WB anti-HA
T2 construct: expressed in transfected cells; host or cells: 293T cells
T2 sequence (O35305 498-556 V537A/Y538F): T1 sequence (O35305 498-556) with V40A, Y41F
Protocol: as §1, with “overnight. Next day, the medium containing the DNA/transfection reagents was replaced with fresh culturing medium.” for “overnight.”
Next, it was determined whether the IVVY (SEQ ID NO:4) motif in the RANK region is specifically responsible for interaction with RYBP. […] Cell lysates were coimmunoprecipitated with anti-Myc antibody and then the precipitates were analyzed by Western analysis with anti-HA antibody.

Substance: HA-RYBP: full-length RYBP cDNA subcloned into pCMV-HA vector
- interaction with RANK (co-IP band) [1]: gave rise to a positive band; also recorded: yielded a positive band
- interaction with IVVY-mutated RANK (co-IP band) [2]: failed to do so
